This series deals with the molecule itself. Nature of the series: cryo-EM structure; purified HGSNAT in 20 mM HEPES pH 7.4, 150 mM NaCl, 0.01% GDN; apo (two conformations) or with acetyl-CoA, CoA, acetyl-CoA + MU-βGlcN, CoA + MUF-NAG; six structures, all dimers.

B1: heparan sulfate acetyl-CoA:α-glucosaminide N-acetyltransferase (HGSNAT) (enzyme, human, UniProt Q68CP4-2 1-635, looked up)
chain: MSGAGRALAALLLAASVLSAALLAPGGSSGRDAQAAPPRDLDKKRHAELKMDQALLLIHNELLWTNLTVYWKSECCYHCLFQVLVNVPQSPKAGKPSAAAASVSTQHGSILQLNDTLEEKEVCRLEYRFGEFGNYSLLVKNIHNGVSEIACDLAVNEDPVDSNLPVSIAFLIGLAVIIVISFLRLLLSLDDFNNWISKAISSRETDRLINSELGSPSRTDPLDGDVQPATWRLSALPPRLRSVDTFRGIALILMVFVNYGGGKYWYFKHASWNGLTVADLVFPWFVFIMGSSIFLSMTSILQRGCSKFRLLGKIAWRSFLLICIGIIIVNPNYCLGPLSWDKVRIPGVLQRLGVTYFVVAVLELLFAKPVPEHCASERSCLSLRDITSSWPQWLLILVLEGLWLGLTFLLPVPGCPTGYLGPGGIGDFGKYPNCTGGAAGYIDRLLLGDDHLYQHPSSAVLYHTEVAYDPEGILGTINSIVMAFLGVQAGKILLYYKARTKDILIRFTAWCCILGLISVALTKVSENEGFIPVNKNLWSLSYVTTLSSFAFFILLVLYPVVDVKGLWTGTPFFYPGMNSILVYVGHEVFENYFPFQWKLKDNQSHKEHLTQNIVATALWVLIAYILYRKKIFWKI
notes: human HGSNAT, open reading frame of UniProt Q68CP4-2 (short isoform 2, 28 residues from the N-terminal missing); The purified sample held two species, the full-length protein and the auto-cleaved form (alpha and beta chains still together); A thrombin site lies between HGSNAT and the tags, so some residues of it may be left after cleavage; also called TMEM76; heparan-α-glucosaminide …
What is called stoichiometry N is a count of units in the complex or per binding partner. For the protein B1, the “stoichiometry N” value was 2.

The values above are taken from paper PMC11199644, “Structural and mechanistic insights into a lysosomal membrane enzyme HGSNAT involved in Sanfilippo syndrome” (Nature Communications, 2024).
